Assay results taken from publication PMC3969220, “N-terminus oligomerization is conserved in intracellular calcium release channels” (Biochemical Journal, 2014).
Values joined by “and” are separate entries in the source; they are usually repeats but may differ in a detail not shown here. Equal values may be shown once. Each block holds one molecule with its values, some of them ahead of it.

Key:
[1] = molecular target: IP3R1 N-terminal domain (residues 1–667, human IP3R1/SI− co-ordinates), c-Myc- or HA-tagged, in HEK-293 cells (human); assay: cross-linking; HEK-293 cell homogenates expressing c-Myc-tagged IP3R1 1-667 constructs, pre-treated with 10 mM DTT, without or with 1 or 10 μM IP3, incubated with glutaraldehyde for the indicated times; SDS/PAGE (6% gels), anti-c-Myc Western blot
[2] = molecular target: IP3R1^(1–667, K493A), IP3 binding-deficient mutant, c-Myc-tagged, in HEK-293 cells (human); assay: as above
[3] = molecular target: calpain-cleaved ~150 kDa N-terminal fragment of native RyR1 from rabbit skeletal muscle SR (rabbit (endogenous in skeletal muscle SR)); assay: cross-linking; rabbit skeletal muscle SR pre-treated with 10 mM DTT, cleaved with calpain-2, centrifuged; resuspended SR pellet incubated with 0.0025% glutaraldehyde; SDS/PAGE (4% gels), Western blot with Ab2142
[4] = molecular target: calpain-cleaved ~150 kDa N-terminal fragment of native RyR1 from rabbit skeletal muscle SR (rabbit (endogenous in skeletal muscle SR)); assay: cross-linking; rabbit skeletal muscle SR pre-treated with 10 mM DTT, cleaved with calpain-2, centrifuged; supernatant (liberated N-terminal fragment only) incubated with 0.0025% glutaraldehyde; SDS/PAGE (4% gels), Western blot with Ab2142
[5] = molecular target: the molecule itself; assay: cross-linking; HEK-293 cell homogenates expressing c-Myc-tagged BT4LR1 or BT4LR3, pre-treated without or with 10 mM DTT, incubated with glutaraldehyde for the indicated times; SDS/PAGE (6% gels), anti-c-Myc Western blot
[6] = molecular target: the molecule itself; assay: not stated; unpublished work (M. Seidel and S. Zissimopoulos)

B1: c-Myc-tagged RyR3 N-terminal fragment (residues 1–911), BT4LR3, in HEK-293 cells (domain or fragment, rabbit, UniProt Q9TS33 1-911, looked up)
chain: MAEGGEGGEDEIQFLRTEDEVVLQCIATVHKEQRKFCLAAEGLGNRLCFLEPTSEAKFIPPDLCVCNFVLEQSLSVRALQEMLANTGENGGEGAAQGGGHRTLLYGHAILLRHSFSGMYLTCLTTSRSQTDKLAFDVGLREHATGEACWWTIHPASKQRSEGEKVRIGDDLILVSVSSERYLHLSISNGNIQVDASFMQTLWNVHPTCSGSSIEEGYLLGGHVVRLFHGHDECLTIPSTDQNDSQHRRIFYEAGGAGTRARSLWRVEPLRISWSGSNIRWGQAFRLRHLTTGHYLALTEDQGLLLQDRGKADTKSTAFSFRPSKETKEKLDSSHKRDIEGMGVPEIKYGDSVCFVQHIASGLWVTYKAQDAKTSRLGPLKRKVILHQEGHMDDGLTLQRCQREESQAARIIRNTTALFSQFVSGNNRTAAPVTLPIEEVLQTLHDLIAYFQPPEEEMQHEDKQNKLRSLKNRQNLFKEEGMLALVLNCIDRLNIYNSVAHFAGIAREESGMAWKEVLSLLYKLLAALIRGNRNTCAQFSNNLDWLISKLDRLESSSGILEVLHCILIESPEALNLIAEGHIKSIISLLDKHGRNHKVLDVLCSLCLCNGVAVRANQNLICDNLLPRRNLLLQTRLINDVTSIRPNIFLGVAEGSAQYKKWYFELIIDQVDPFLTAEPTHLRVGWASSSGYAPYPGGGEGWGGNGVGDDLYSYGFDGLHLWSGRIPRAVASINQHLLKSDDVVSCCLDLGVPSISFRINGQPVQGMFENFNTDGLFFPVMSFSAGVKVRFLMGGRHGEFKFLPPSGYAPCYEALLPKEKMRLEPVKEYKRDAEGVRDLLGTTQFLSQASFIPCPIDTSQVVLPPHLEKIRDRLAENIHELWGMNKIELGWTFGKMRDDNKRQHPCLVEFSKL
notes: ryanodine receptor 3 (RyR3), rabbit, residues 1-911; also called c-Myc–BT4LR3
stoichiometry N [5]: 4

B2: c-Myc-tagged RyR1 N-terminal fragment (residues 1–915), BT4LR1, in HEK-293 cells (domain or fragment, rabbit, UniProt P11716 1-915, looked up)
chain: MGDGGEGEDEVQFLRTDDEVVLQCSATVLKEQLKLCLAAEGFGNRLCFLEPTSNAQNVPPDLAICCFTLEQSLSVRALQEMLANTVEAGVESSQGGGHRTLLYGHAILLRHAHSRMYLSCLTTSRSMTDKLAFDVGLQEDATGEACWWTMHPASKQRSEGEKVRVGDDLILVSVSSERYLHLSTASGELQVDASFMQTLWNMNPICSCCEEGYVTGGHVLRLFHGHMDECLTISAADSDDQRRLVYYEGGAVCTHARSLWRLEPLRISWSGSHLRWGQPLRIRHVTTGRYLALTEDQGLVVVDACKAHTKATSFCFRVSKEKLDTAPKRDVEGMGPPEIKYGESLCFVQHVASGLWLTYAAPDPKALRLGVLKKKAILHQEGHMDDALFLTRCQQEESQAARMIHSTAGLYNQFIKGLDSFSGKPRGSGPPAGPALPIEAVILSLQDLIGYFEPPSEELQHEEKQSKLRSLRNRQSLFQEEGMLSLVLNCIDRLNVYTTAAHFAEYAGEEAAESWKEIVNLLYELLASLIRGNRANCALFSTNLDWVVSKLDRLEASSGILEVLYCVLIESPEVLNIIQENHIKSIISLLDKHGRNHKVLDVLCSLCVCNGVAVRSNQDLITENLLPGRELLLQTNLINYVTSIRPNIFVGRAEGSTQYGKWYFEVMVDEVVPFLTAQATHLRVGWALTEGYSPYPGGGEGWGGNGVGDDLYSYGFDGLHLWTGHVARPVTSPGQHLLAPEDVVSCCLDLSVPSISFRINGCPVQGVFEAFNLDGLFFPVVSFSAGVKVRFLLGGRHGEFKFLPPPGYAPCHEAVLPRERLRLEPIKEYRREGPRGPHLVGPSRCLSHTDFVPCPVDTVQIVLPPHLERIREKLAENIHELWALTRIEQGWTYGPVRDDNKRLHPCLVNFHSLPE
notes: ryanodine receptor 1 (RyR1), rabbit, residues 1-915; also called c-Myc–BT4LR1
stoichiometry N [5]: 4

B3: truncated RyR2 N-terminal fragment (residues 1–654), of the unpublished observation (domain or fragment, human, UniProt Q92736 1-654, looked up)
chain: MADGGEGEDEIQFLRTDDEVVLQCTATIHKEQQKLCLAAEGFGNRLCFLESTSNSKNVPPDLSICTFVLEQSLSVRALQEMLANTVEKSEGQVDVEKWKFMMKTAQGGGHRTLLYGHAILLRHSYSGMYLCCLSTSRSSTDKLAFDVGLQEDTTGEACWWTIHPASKQRSEGEKVRVGDDLILVSVSSERYLHLSYGNGSLHVDAAFQQTLWSVAPISSGSEAAQGYLIGGDVLRLLHGHMDECLTVPSGEHGEEQRRTVHYEGGAVSVHARSLWRLETLRVAWSGSHIRWGQPFRLRHVTTGKYLSLMEDKNLLLMDKEKADVKSTAFTFRSSKEKLDVGVRKEVDGMGTSEIKYGDSVCYIQHVDTGLWLTYQSVDVKSVRMGSIQRKAIMHHEGHMDDGISLSRSQHEESRTARVIRSTVFLFNRFIRGLDALSKKAKASTVDLPIESVSLSLQDLIGYFHPPDEHLEHEDKQNRLRALKNRQNLFQEEGMINLVLECIDRLHVYSSAAHFADVAGREAGESWKSILNSLYELLAALIRGNRKNCAQFSGSLDWLISRLERLEASSGILEVLHCVLVESPEALNIIKEGHIKSIISLLDKHGRNHKVLDVLCSLCVCHGVAVRSNQHLICDNLLPGRDLLLQTRLVNHVSS
notes: may be the same construct as m10
stoichiometry N [6]: 4

The next lines start with the values.

stoichiometry N [1]: 4
Molecule: IP3R1 N-terminal domain (residues 1–667, human IP3R1/SI− co-ordinates), c-Myc- or HA-tagged, in HEK-293 cells (domain or fragment)

stoichiometry N [2]: 4
Molecule: IP3R1^(1–667, K493A), IP3 binding-deficient mutant, c-Myc-tagged, in HEK-293 cells (domain or fragment)

stoichiometry N [3]: 2 and 3 and 4
stoichiometry N [4]: 2 and 3 and 4
Molecule: calpain-cleaved ~150 kDa N-terminal fragment of native RyR1 from rabbit skeletal muscle SR (domain or fragment)
